According to paper PMC10333884 (Molecular Systems Biology, 2023):
Non-standard residues stand in square brackets, D forms with d. No end group written: not given here. pS = N[C@@H](COP(=O)(O)O)C(=O)O

Experiments:
Conditions in all cases: both partners purified
[1] = target: T1, Clathrin N-terminal domain (NTD) (human, UniProt Q00610 1-364); test: fluorescence polarisation; displacement: unlabelled peptide diluted 1:1 in series and added to a pre-formed complex of protein domain and FITC-labelled probe peptide (5 nM in the measurement); 50 mM sodium phosphate pH 7.4, room temperature; KD calculated from the displacement curves; technical triplicates
T1 construct: clathrin heavy chain, N-terminal domain; also called Clathrin NTD; CLTC-NTD; source: E. coli BL21-Gold(DE3), purified (GSH or Ni2+ beads), tag removed with protease
T1 sequence: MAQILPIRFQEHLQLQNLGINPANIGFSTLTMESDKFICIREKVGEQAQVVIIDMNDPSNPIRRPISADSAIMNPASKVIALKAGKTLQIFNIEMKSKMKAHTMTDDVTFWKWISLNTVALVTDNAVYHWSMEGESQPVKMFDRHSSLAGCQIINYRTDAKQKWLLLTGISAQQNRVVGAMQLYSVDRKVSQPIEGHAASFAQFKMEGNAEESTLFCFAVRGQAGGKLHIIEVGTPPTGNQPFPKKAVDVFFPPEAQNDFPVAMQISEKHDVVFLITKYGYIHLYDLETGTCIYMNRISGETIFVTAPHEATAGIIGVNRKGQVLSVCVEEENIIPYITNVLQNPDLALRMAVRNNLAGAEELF

[2] = target: T2, RANBP2 RanBD4 (human); test: fluorescence polarisation; direct binding (saturation curve): 1:1 dilution series of the protein domain with 5 nM FITC-labelled peptide; room temperature; 50 mM sodium phosphate buffer pH 7.4; fitted to the quadratic equation
T2 construct: the sheet prints 'RanBD1 4'); also called RANBP2 RanBD1 4; RAN2BP RanBD4; source: E. coli BL21-Gold(DE3), purified (GSH or Ni2+ beads), tag removed by protease

[3] = target: T3, GGA1 VHS (human, UniProt Q9UJY5 17-147); test: fluorescence polarisation; displacement of a FITC-labelled probe peptide (5 nM in the measurement) from the protein domain (1-2 fold over the probe's KD) by a dilution series of unlabelled peptide; room temperature; 50 mM sodium phosphate pH 7.4; KD calculated from the displacement curve; for KPNA4 ARM one probe for each pocket
T3 construct: GGA1 VHS domain; limits in Dataset EV3; construct limits are in Dataset EV3; also called GGA1 VHS domain; source: E. coli BL21-Gold(DE3), purified, tag removed
T3 sequence (looked up): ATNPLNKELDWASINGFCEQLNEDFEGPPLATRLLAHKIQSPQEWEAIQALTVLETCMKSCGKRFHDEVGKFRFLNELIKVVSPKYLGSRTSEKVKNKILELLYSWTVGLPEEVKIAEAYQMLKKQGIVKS

[4] = target: T4, MAP1LC3A ATG8 (human); test: fluorescence polarisation; direct binding (saturation curve): 1:1 dilution series of the protein domain with 5 nM FITC-labelled peptide; room temperature; 50 mM sodium phosphate buffer pH 7.4; fitted to the quadratic equation
T4 construct: MAP1LC3A, ATG8 domain; source: E. coli BL21-Gold(DE3), purified (GSH or Ni2+ beads), tag removed by protease

[5] = target: T5, GABARAPL2 ATG8 (human); test: as above
T5 construct: GABARAPL2, ATG8 domain; source: E. coli BL21-Gold(DE3), purified (GSH or Ni2+ beads), tag removed by protease

[6] = target: MAP1LC3B ATG8 (human); test: as above
[7] = target: T6, AP2 µ2 (human, UniProt Q96CW1 1-435); test: as above
T6 construct: AP-2 complex subunit mu (AP2 µ2); also called AP2 μ2; source: E. coli BL21-Gold(DE3), purified (GSH or Ni2+ beads), tag removed by protease
T6 sequence (looked up): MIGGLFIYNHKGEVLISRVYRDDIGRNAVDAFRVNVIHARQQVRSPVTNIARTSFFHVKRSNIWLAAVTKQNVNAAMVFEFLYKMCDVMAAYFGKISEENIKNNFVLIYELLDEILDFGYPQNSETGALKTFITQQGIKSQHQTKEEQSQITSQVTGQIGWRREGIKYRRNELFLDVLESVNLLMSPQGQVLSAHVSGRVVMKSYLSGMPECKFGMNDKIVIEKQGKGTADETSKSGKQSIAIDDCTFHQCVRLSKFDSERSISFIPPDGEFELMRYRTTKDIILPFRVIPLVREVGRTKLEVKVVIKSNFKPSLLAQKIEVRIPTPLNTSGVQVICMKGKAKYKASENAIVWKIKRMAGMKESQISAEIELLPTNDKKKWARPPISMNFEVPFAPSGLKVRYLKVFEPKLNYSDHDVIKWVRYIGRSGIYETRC

[8] = target: T7, TSG101 UEV domain (human, UniProt Q99816 2-145); test: as above
T7 sequence (looked up): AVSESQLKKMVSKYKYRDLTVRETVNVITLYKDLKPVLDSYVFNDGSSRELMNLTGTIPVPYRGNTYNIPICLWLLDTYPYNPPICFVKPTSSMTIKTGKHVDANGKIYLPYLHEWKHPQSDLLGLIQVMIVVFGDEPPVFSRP

[9] = target: T8, FITC-HIV1_Gag (HIV-1 (printed as HIV1), also: FITC label, position not given here); test: as above
T8 chain: SLYPPLTSLR

[10] = target: SNX27 PDZ domain, MBP-tagged (human, UniProt Q96L92 43-136); test: as above
[11] = target: T9, GGA1 VHS domain (human, UniProt Q9UJY5 17-147); test: as above
T9 construct: GGA1, VHS domain; source: E. coli BL21-Gold(DE3), purified (GSH or Ni2+ beads), tag removed by protease
T9 sequence (looked up): T3 sequence (looked up)

[12] = target: T10, Clathrin N-terminal domain (NTD) (human, UniProt Q00610 1-364); test: as above
T10 construct: clathrin heavy chain, N-terminal domain; also called Clathrin NTD; CLTC-NTD; source: E. coli BL21-Gold(DE3), purified (GSH or Ni2+ beads), tag removed by protease
T10 sequence: T1 sequence

[13] = target: T11, 14-3-3 Theta (human, UniProt P27348 1-245); test: as above
T11 sequence (looked up): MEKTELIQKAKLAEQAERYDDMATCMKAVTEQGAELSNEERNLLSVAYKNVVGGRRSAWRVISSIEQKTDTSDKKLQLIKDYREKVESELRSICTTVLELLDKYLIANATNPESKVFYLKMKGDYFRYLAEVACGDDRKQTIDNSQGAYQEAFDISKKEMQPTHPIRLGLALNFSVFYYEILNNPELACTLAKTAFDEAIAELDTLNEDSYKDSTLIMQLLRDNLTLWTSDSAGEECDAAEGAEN

[14] = target: T12, FITC-MYC (also: FITC label, position not given here); test: as above
T12 chain: PAAKRVKLD

[15] = target: T13, FITC-NCOR2 (also: FITC label, position not given here); test: as above
T13 chain: PKRTYDMMEGRVGRAI

B1: GTSE1 692-707 peptide phosphorylated at S699 (peptide)
peptide: YGQLIDLS[pS]PLIQLSPE
notes: not part of GTSE1; G2 and S phase-expressed protein 1 (GTSE1), human, residues 692-707; also called pS699 GTSE1; source: synthetic peptide (Glbiochem or Genecust)
[1]
  Kd: 109 µM

## KEALATPLPK (also: FITC label, position not given here) [FITC-C7orf25]
[2]
  Kd: 22 µM

B2: GTSE1 692-707 peptide, unphosphorylated (peptide)
peptide: YGQLIDLSSPLIQLSPE
notes: not part of GTSE1; G2 and S phase-expressed protein 1 (GTSE1), human, residues 692-707; also called wild-type GTSE1; source: synthetic peptide (Glbiochem or Genecust)
[1]
  Kd: 91 µM

B3: GTSE1 692-707 peptide phosphorylated at S705 (peptide)
peptide: YGQLIDLSSPLIQL[pS]PE
notes: not part of GTSE1; G2 and S phase-expressed protein 1 (GTSE1), human, residues 692-707; also called pS705 GTSE1; source: synthetic peptide (Glbiochem or Genecust)
[1]
  Kd: 105 µM

## INLFEKEKEMKKSPTS (also: phosphoserine/threonine, site not given here) [GTSE1_(145–160), phosphorylated (pS)]
[3]
  Kd: 640 µM

## DDDWTHLSSK (also: FITC label, position not given here) [FITC-SQSTM1]
[4]
  Kd: 1.36 µM
[5]
  Kd: 11 µM
[6]
  Kd: 2.5 µM

B4: GTSE1 692-707 peptide phosphorylated at S698 (peptide)
peptide: YGQLIDL[pS]SPLIQLSPE
notes: not part of GTSE1; G2 and S phase-expressed protein 1 (GTSE1), human, residues 692-707; also called pS698 GTSE1; source: synthetic peptide (Glbiochem or Genecust)
[1]
  Kd: 123 µM

## FDTEYQRLEAS (also: FITC label, position not given here) [FITC-ATG9A]
[7]
  Kd: 1.51 µM

## GLIPTAPPAD (also: FITC label, position not given here) [FITC-HIV2_Gag]
[8]
  Kd: 1.9 µM

B5: PDCD6IP Alix V domain (domain or fragment)
chain: PVSVQQSLAAYNQRKADLVNRSIAQMREATTLANGVLASLNLPAAIEDVSGDTVPQSILTKSRSVIEQGGIQTVDQLIKELPELLQRNREILDESLRLLDEEEATDNDLRAKFKERWQRTPSNELYKPLRAEGTNFRTVLDKAVQADGQVKECYQSHRDTIVLLCKPEPELNAAIPSANPAKTMQGSEVVNVLKSLLSNLDEVKKEREGLENDLKSVNFDMTSKFLTALAQDGVINEEALSVTELDRVYGGLTTKVQESLKKQEGLLKNIQVSHQEFSKMKQSNNEANLREEVLKNLATAYDNFVELVANLKEGTKFYNELTEILVRFQNKCSDIVFARKTER
[9]
  Kd: 3.6 µM

## GSLEMETAFNSRGFED (also: FITC label, position not given here) [FITC-SYT16]
[10]
  Kd: 7.5 µM

## DDSDEDLLHI (also: FITC label, position not given here) [FITC-IGF2R]
[11]
  Kd: 31 µM

## SVDLITFDSV (also: FITC label, position not given here) [FITC-NSP3]
[12]
  Kd: 26 µM

## RQRSAP (also: FITC label, position not given here) [FITC-2BTP]
[13]
  Kd: 27.8 µM

B6: KPNA4 ARM domain (domain or fragment)
chain: GDYRVQNTSLEAIVQNASSDNQGIQLSAVQAARKLLSSDRNPPIDDLIKSGILPILVHCLERDDNPSLQFEAAWALTNIASGTSEQTQAVVQSNAVPLFLRLLHSPHQNVCEQAVWALGNIIGDGPQCRDYVISLGVVKPLLSFISPSIPITFLRNVTWVMVNLCRHKDPPPPMETIQEILPALCVLIHHTDVNILVDTVWALSYLTDAGNEQIQMVIDSGIVPHLVPLLSHQEVKVQTAALRAVGNIVTGTDEQTQVVLNCDALSHFPALLTHPKEKINKEAVWFLSNITAGNQQQVQAVIDANLVPMIIHLLDKGDFGTQKEAAWAISNLTISGRKDQVAYLIQQNVIPPFCNLLTVKDAQVVQVVLDGLSNILKMAEDEAETIGNLIEECGGLEKIEQLQNHENEDIYKLAYEIIDQFFSSDDIDEDPSLVPEAIQGGTFGFNSSANVPTEGFQF
[14]
  Kd: 0.003 µM
[15]
  Kd: 0.013 µM
